Reference: paper PMC10397247

T1: P4A-bA
T1 chain: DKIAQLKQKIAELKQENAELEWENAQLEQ

T2: P12A-bA
T2 chain: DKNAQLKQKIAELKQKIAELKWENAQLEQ

T3: P2A-bA
T3 chain: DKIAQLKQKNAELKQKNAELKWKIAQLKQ

T4: P5A-bA
T4 chain: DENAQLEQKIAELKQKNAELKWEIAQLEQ

T5: P7A-bA
T5 chain: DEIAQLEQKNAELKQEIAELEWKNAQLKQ

T6: P6A-bA
T6 chain: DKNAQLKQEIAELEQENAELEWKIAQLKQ

T7: P3A-bA
T7 chain: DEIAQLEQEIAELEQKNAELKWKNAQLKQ

T8: P8A-bA
T8 chain: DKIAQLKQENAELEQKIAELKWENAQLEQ

T9: P11A-bA
T9 chain: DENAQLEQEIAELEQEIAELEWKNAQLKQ

T10: P1A-bA
T10 chain: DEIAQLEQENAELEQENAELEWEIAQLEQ

T11: P9A-bA
T11 chain: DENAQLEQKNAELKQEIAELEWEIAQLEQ

T12: P2-AA
T12 chain: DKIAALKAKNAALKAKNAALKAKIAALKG

T13: P2-AA-1HAA-R
T13 chain: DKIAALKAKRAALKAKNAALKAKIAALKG

T14: P2-AA-1HAA-T
T14 chain: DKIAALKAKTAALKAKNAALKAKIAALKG

T15: P2-AA-1HAA-S
T15 chain: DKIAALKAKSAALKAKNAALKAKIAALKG

T16: P2-AA-1HAA-K
T16 chain: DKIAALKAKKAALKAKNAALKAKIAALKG

T17: P2-AA-1HAA-E
T17 chain: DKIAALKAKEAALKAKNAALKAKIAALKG


How the values were obtained:
P4A-bA = biological target: T1, P4A-bA; assay: two-hybrid library CCNG1;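 further: natural log of median RNA to DNA barcode read ratio; higher means stronger binding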
P12A-bA = biological target: T2, P12A-bA; assay: two-hybrid library CCNG1;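 further: natural log of median RNA to DNA barcode read ratio; higher means stronger binding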
P2A-bA = biological target: T3, P2A-bA; assay: two-hybrid library CCNG1;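 further: natural log of median RNA to DNA barcode read ratio; higher means stronger binding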
P5A-bA = biological target: T4, P5A-bA; assay: two-hybrid library CCNG1;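 further: natural log of median RNA to DNA barcode read ratio; higher means stronger binding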
P7A-bA = biological target: T5, P7A-bA; assay: two-hybrid library CCNG1
P6A-bA = biological target: T6, P6A-bA; assay: two-hybrid library CCNG1
P3A-bA = biological target: T7, P3A-bA; assay: two-hybrid library CCNG1
P8A-bA = biological target: T8, P8A-bA; assay: two-hybrid library CCNG1
P11A-bA = biological target: T9, P11A-bA; assay: two-hybrid library CCNG1
P1A-bA = biological target: T10, P1A-bA; assay: two-hybrid library CCNG1
P9A-bA = biological target: T11, P9A-bA; assay: two-hybrid library CCNG1
P2-AA = biological target: T12, P2-AA; assay: two-hybrid library CCmax; conditions: mean of both orientations
P2-AA-1HAA-R = biological target: T13, P2-AA-1HAA-R; assay: two-hybrid library CCmax; conditions: mean of both orientations
P2-AA-1HAA-T = biological target: T14, P2-AA-1HAA-T; assay: two-hybrid library CCmax; conditions: mean of both orientations
P2-AA-1HAA-S = biological target: T15, P2-AA-1HAA-S; assay: two-hybrid library CCmax; conditions: mean of both orientations
P2-AA-1HAA-K = biological target: T16, P2-AA-1HAA-K; assay: two-hybrid library CCmax; conditions: mean of both orientations
P2-AA-1HAA-E = biological target: T17, P2-AA-1HAA-E; assay: two-hybrid library CCmax; conditions: mean of both orientations

| Binder | interaction score (P4A-bA) | interaction score (P12A-bA) | interaction score (P2A-bA) | interaction score (P5A-bA) | interaction score (P7A-bA) | interaction score (P6A-bA) | interaction score (P3A-bA) | interaction score (P8A-bA) | interaction score (P11A-bA) | interaction score (P1A-bA) | interaction score (P9A-bA) | interaction score (P2-AA) | interaction score (P2-AA-1HAA-R) | interaction score (P2-AA-1HAA-T) | interaction score (P2-AA-1HAA-S) | interaction score (P2-AA-1HAA-K) | interaction score (P2-AA-1HAA-E) |
| --- | --- | --- | --- | --- | --- | --- | --- | --- | --- | --- | --- | --- | --- | --- | --- | --- | --- |
| DKNAQLKQENAELEQKIAELKWKIAQLKQ [P10A-bA] | 0.592 | 0.511 | -0.362 | 0.318 | 1.04 | -0.543 | 0.562 | -0.165 | 0.99 | 0.776 | – | – | – | – | – | – | – |
| DKNAQLKQKIAELKQKIAELKWENAQLEQ [P12A-bA] | -1.03 | -0.937 | -1.29 | -1.16 | -1.88 | -0.314 | 0.536 | -1.32 | – | -0.14 | 0.0326 | – | – | – | – | – | – |
| DEIAALEAEEAALEAENAALEAEIAALEG [P1-AA-1HAA-E] | – | – | – | – | – | – | – | – | – | – | – | 1.82 | 1.9 | 1.66 | 1.57 | 1.57 | 0.691 |
